According to article PMC3865065 (Nature, 2013):

Target: T1, extracellular Venus Flytrap (VFT) module of human GBR2 (human, UniProt O75899 42-466, carbohydrate at Asn404)
T1 sequence (looked up): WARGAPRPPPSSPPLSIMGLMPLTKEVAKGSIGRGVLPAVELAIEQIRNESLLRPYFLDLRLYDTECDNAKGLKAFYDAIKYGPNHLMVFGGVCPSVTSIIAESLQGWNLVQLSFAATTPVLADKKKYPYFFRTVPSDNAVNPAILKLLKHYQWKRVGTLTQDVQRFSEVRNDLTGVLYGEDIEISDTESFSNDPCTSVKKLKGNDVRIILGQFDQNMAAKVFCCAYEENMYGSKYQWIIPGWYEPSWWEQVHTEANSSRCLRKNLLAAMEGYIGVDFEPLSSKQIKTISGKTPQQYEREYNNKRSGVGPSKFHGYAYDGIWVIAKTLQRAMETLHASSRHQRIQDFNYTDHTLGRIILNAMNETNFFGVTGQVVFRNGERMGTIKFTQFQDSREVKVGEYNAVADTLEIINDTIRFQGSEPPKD
Test: crystal structure

- binding result: binds
B1: extracellular Venus Flytrap (VFT) module of human GBR1b (domain or fragment, UniProt Q9UBS5-2 48-459, looked up)
chain: SERRAVYIGALFPMSGGWPGGQACQPAVEMALEDVNSRRDILPDYELKLIHHDSKCDPGQATKYLYELLYNDPIKIILMPGCSSVSTLVAEAARMWNLIVLSYGSSSPALSNRQRFPTFFRTHPSATLHNPTRVKLFEKWGWKKIATIQQTTEVFTSTLDDLEERVKEAGIEITFRQSFFSDPAVPVKNLKRQDARIIVGLFYETEARKVFCEVYKERLFGKKYVWFLIGWYADNWFKIYDPSINCTVDEMTEAVEGHITTEIVMLNPANTRSISNMTSQEFVEKLTKRLKRHPEETGGFQEAPLAYDAIWALALALNKTSGGGGRSGVRLEDFNYNNQTITDQIYRAMNSSSFEGVSGHVVFDASGSRMAWTLIEQLQGGSYKKIGYYDSTKDDLSWSKTDKWIGGSPPAD
modifications: carbohydrate at Asn323 and Asn365 (seen in apo and antagonist-bound structures)
